Test [1] has as its target T1, ILT3 on target cells (MOLM13, OCI-AML-2, NALM-1, THP-1, MM1S, H929, U226B1 and other lines) (human, UniProt Q8NHJ6 22-448). Nature of the test: cell-based or functional assay.
Test [2] deals with T1, ILT3 on target cells (MOLM13, …). The test can be described thus: cell-based or functional assay. This is another data set of the same source.
Test [3] has the same target. Nature of the test: cell-based or functional assay. This is another data set of the same source.
For test [4] the target is unchanged. Nature of the test: cell-based or functional assay. This is another data set of the same source.
Test [5] has the same target. Nature of the test: cell-based or functional assay. This is another data set of the same source.
Test [6] has the same target. Nature of the test: cell-based or functional assay. This is another data set of the same source.
Test [7] deals with T2, human ILT3 (as used in the affinity measurements) (human, UniProt Q8NHJ6 22-259, limits assumed).
T2 construct: also called immunoglobulin-like transcript 3
The test can be described thus: column 'ILT3 Affinity (nM)'; method and format not stated.

The target of test [8] is T2, human ILT3 (as used in the affinity …). Nature of the test: comparison of the affinity of Hz45G10 for human ILT3 with that of the CD3 scFv for CD3.
Test [9] deals with T3, CD3 (as used in the affinity measurements) (human, UniProt P07766 23-126).
T3 construct: the description gives human CD3 as UniProtKB P07766; also called human CD3
T3 sequence (P07766 23-126): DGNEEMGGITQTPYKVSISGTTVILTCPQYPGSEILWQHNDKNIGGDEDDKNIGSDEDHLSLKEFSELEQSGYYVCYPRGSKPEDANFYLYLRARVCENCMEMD
Nature of the test: SPR.

Like-named read-outs stand apart in the source and are kept apart here.

B1: ABX1446, ILT3xCD3 bispecific antibody, format F0 (bispecific antibody, human IgG1, kappa, L234A L235A)
chain: EVQLLESGGGLVQPGGSLKLSCAASGFTFNTYAMNWVRQAPGKCLEWVARIRSKYNNYATYYADSVKDRFTISRDDSKNTAYLQMNNLKTEDTAVYYCVRHGNFGNSYVSWFAYWGQGTLVTVSSGGGGSGGGGSGGGGSELVVTQEPSLTVSPGGTVTLTCRSSTGAVTTSNYANWVQQKPGQAPRGLIGGTNKRAPGTPARFSGSLLGGKAALTLSGVQPEDEAEYYCALWYSNLWVFGCGTKLTVLGGGGSDKTHTCPPCPAPEAAGGPSVFLFPPKPKDTLMISRTPEVTCVVVDVSHEDPEVKFNWYVDGVEVHNAKTKPREEQYNSTYRVVSVLTVLHQDWLNGKEYKCKVSNKALPAPIEKTISKAKGQPREPQVYTLPPSREEMTKNQVSLSCAVKGFYPSDIAVEWESNGQPENNYKTTPPVLDSDGSFFLVSKLTVDKSRWQQGNVFSCSVMHEALHNHYTQKSLSLSPGK
heavy: EVQLVESGGGLVQPGGSLRLSCAASGFTFSDYGMHWVRQAPGKGLEWVAYIFSGSSTIYYADTVKGRFTISRDNAKNSLYLQMNSLRAEDTAVYYCARADGRGAMDYWGQGTLVTVSSASTKGPSVFPLAPSSKSTSGGTAALGCLVKDYFPEPVTVSWNSGALTSGVHTFPAVLQSSGLYSLSSVVTVPSSSLGTQTYICNVNHKPSNTKVDKKVEPKSCDKTHTCPPCPAPEAAGGPSVFLFPPKPKDTLMISRTPEVTCVVVDVSHEDPEVKFNWYVDGVEVHNAKTKPREEQYNSTYRVVSVLTVLHQDWLNGKEYKCKVSNKALPAPIEKTISKAKGQPREPQVYTLPPSREEMTKNQVSLWCLVKGFYPSDIAVEWESNGQPENNYKTTPPVLDSDGSFFLYSKLTVDKSRWQQGNVFSCSVMHEALHNHYTQKSLSLSPGK
light: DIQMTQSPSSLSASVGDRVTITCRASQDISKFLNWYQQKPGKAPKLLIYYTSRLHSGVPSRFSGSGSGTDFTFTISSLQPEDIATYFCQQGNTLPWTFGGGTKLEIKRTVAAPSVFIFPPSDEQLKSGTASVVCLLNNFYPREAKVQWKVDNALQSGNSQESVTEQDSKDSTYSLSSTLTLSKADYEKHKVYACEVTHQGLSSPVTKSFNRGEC
As to B1, the “TDCC, EC50 (pM), MOLM13 cells, expanded T cells” value (“TDCC, EC50 … expanded T cells” for short) in test [1] worked out at 0.9 pM. In addition, in [2], the “TDCC vs. NKM-1 Cells, EC50 (pM), naive T cells from PBMCs” value was 20.4 pM and the “TDCC vs. OCI-AML-2 Cells, EC50 (pM), naive T cells from PBMCs” value worked out at 2.5 pM. Further, the “TDCC, EC50 (pM), MOLM13 cells” value in test [3] turned out to be 11 pM. Also, in test [4], the “TDCC vs. NALM-1 Cells, EC50 (pM), expanded T cells” value was found to be 5.7 pM and the “TDCC vs. OCI-AML-2 Cells, EC50 (pM), expanded T cells” value was found to be 13.5 pM. For the same molecule, in test [5], the “TDCC, EC50 (pM), H929 cells” value is 18.6 pM; the “TDCC, EC50 (pM), MM1S cells” value came out at 18.6 pM; the “TDCC, EC50 (pM), U226B1 cells” value came out at 6.5 pM. For the same molecule, in [6], the “PBMC Cytotoxicity, EC50 (pM), MOLM13 cells, naive T cells from PBMCs” value turned out to be 46.8 pM and the “TDCC, EC50 … expanded T cells” value was found to be 10.9 pM.

B2: ABX1520, ILT3xCD3 bispecific antibody, format F13 (bispecific antibody, human IgG1, kappa, L234A L235A)
chain: EVQLLESGGGLVQPGGSLKLSCAASGFTFNTYAMNWVRQAPGKCLEWVARIRSKYNNYATYYADSVKDRFTISRDDSKNTAYLQMNNLKTEDTAVYYCVRHGNFGNSYVSWFAYWGQGTLVTVSSGGGGSGGGGSGGGGSELVVTQEPSLTVSPGGTVTLTCRSSTGAVTTSNYANWVQQKPGQAPRGLIGGTNKRAPGTPARFSGSLLGGKAALTLSGVQPEDEAEYYCALWYSNLWVFGCGTKLTVLGGGGSDKTHTCPPCPAPEAAGGPSVFLFPPKPKDTLMISRTPEVTCVVVDVSHEDPEVKFNWYVDGVEVHNAKTKPREEQYNSTYRVVSVLTVLHQDWLNGKEYKCKVSNKALPAPIEKTISKAKGQPREPQVYTLPPSREEMTKNQVSLSCAVKGFYPSDIAVEWESNGQPENNYKTTPPVLDSDGSFFLVSKLTVDKSRWQQGNVFSCSVMHEALHNHYTQKSLSLSPGK
heavy: EVQLVESGGGLVQPGGSLRLSCAASGFTFSDYGMHWVRQAPGKGLEWVAYIFSGSSTIYYADTVKGRFTISRDNAKNSLYLQMNSLRAEDTAVYYCARADGRGAMDYWGQGTLVTVSSASTKGPSVFPLAPSSKSTSGGTAALGCLVKDYFPEPVTVSWNSGALTSGVHTFPAVLQSSGLYSLSSVVTVPSSSLGTQTYICNVNHKPSNTKVDKKVEPKSCGGGGSEVQLVESGGGLVQPGGSLRLSCAASGFTFSDYGMHWVRQAPGKGLEWVAYIFSGSSTIYYADTVKGRFTISRDNAKNSLYLQMNSLRAEDTAVYYCARADGRGAMDYWGQGTLVTVSSASTKGPSVFPLAPSSKSTSGGTAALGCLVKDYFPEPVTVSWNSGALTSGVHTFPAVLQSSGLYSLSSVVTVPSSSLGTQTYICNVNHKPSNTKVDKKVEPKSCDKTHTCPPCPAPEAAGGPSVFLFPPKPKDTLMISRTPEVTCVVVDVSHEDPEVKFNWYVDGVEVHNAKTKPREEQYNSTYRVVSVLTVLHQDWLNGKEYKCKVSNKALPAPIEKTISKAKGQPREPQVYTLPPSREEMTKNQVSLWCLVKGFYPSDIAVEWESNGQPENNYKTTPPVLDSDGSFFLYSKLTVDKSRWQQGNVFSCSVMHEALHNHYTQKSLSLSPGK
light: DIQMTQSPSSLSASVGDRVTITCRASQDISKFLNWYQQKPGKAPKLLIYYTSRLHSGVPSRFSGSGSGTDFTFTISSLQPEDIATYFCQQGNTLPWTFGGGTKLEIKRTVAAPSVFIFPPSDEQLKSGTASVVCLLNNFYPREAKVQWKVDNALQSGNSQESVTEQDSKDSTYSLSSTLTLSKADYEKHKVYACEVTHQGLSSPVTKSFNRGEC
Turning to B2, in test [2], the “TDCC vs. NKM-1 Cells, EC50 (pM), naive T cells from PBMCs” value came out at 2.6 pM and the “TDCC vs. OCI-AML-2 Cells, EC50 (pM), naive T cells from PBMCs” value turned out to be 2 pM. Also, in [4], the “TDCC vs. NALM-1 Cells, EC50 (pM), expanded T cells” value was found to be 3.6 pM and the “TDCC vs. OCI-AML-2 Cells, EC50 (pM), expanded T cells” value came out at 23.3 pM. In [6], the “PBMC Cytotoxicity, EC50 (pM), MOLM13 cells, naive T cells from PBMCs” value stood at 53.7 pM and the “TDCC, EC50 … expanded T cells” value turned out to be 1.4 pM.

B3: 16C5 anti-ILT3 antibody (antibody, V domains shown)
VH: EVQLQQSGPELVKPGASVKISCKASGYTFTDYNMDWVKQSHGKSLEWIGYIYPSNGGTGYNQKFKSKATLTVDKSSNTAYMELHSLTSEDSAVYYCARVPYYDYLYYYAMDYWGQGTSVTVSS
VL: QIVLSQSPAILSASPGEKVTMACRASSSVSFMHWYQQKPGSSPQPWIYATSNLASGVPARFSGSGSGTSYSLTISRVEAEDAATYYCQQWSTNPYMYTFGGGTKLEIK
The molecule B3 showed a Kd in test [7] of 0.7 nM.

B4: 12A12 anti-ILT3 antibody (antibody, V domains shown)
VH: EVQLQQSGPELVKPGASVKISCKASGYTFTDYNMDWVKQSHGKSLEWIGYIYPNNGGTGYNQKFNSKATLTVDKSSSTAYMELHSLTSEDSAVYYCASSPYYDYVGSYAMDYWGQGTSVTVSS
VL: QIVLTQSPAIMSASLGERVTMTCTASSSVSSSYLHWYQQKPGSSPKLWIYSTSNLASGVPARFSGSGSGTSYSLTISSMEAEDAATYYCHQYHRSPRTFGGGTKLEIK
For B4, the Kd in test [7] stood at 8.5 nM.

B5: 3A3 anti-ILT3 antibody (antibody, V domains shown)
VH: QVQLKESGPGLVAPSQSLSITCTVSGFSLTSYGVHWVRQPPGKGLEWLGVIWPGGTINYNSALMSRLSISKDNSKSQVFLKLNSLQTDDTAMYYCASDKYDGGWFAYWGQGTLVTVSA
VL: DIVMTQSQKFMSTSVGDRVSITCKASQNVRTAVAWYQQKPGQSPEALIYLASNRHTGVPDRFTGSGSGTDFSLSISNVQSEDLADYFCLQHLNYPLTFGSGTKLEIK
B5: in test [7], binding was characterised by a dissociation constant (Kd) of 2 nM. Against the preceding molecule, the Kd is about 4.2-fold lower.

B6: 53F10 anti-ILT3 antibody (antibody, V domains shown)
VH: EVQVVESGGGLVKPGGSLKLSCAASGFTFSDYGMHWVRQAPEKGLEWVAYISTGIITVYYADTVKGRFTMSRDNAKNTLFLQMTSLRSEDTAIYYCARADGRGAMDYWGQGTSVIVSS
VL: DIQMTQTTSSLSASLGDRVTISCRASQDISNFLNWYQQKPDGTVTLLIYYTSRLHSGVPSRFSGSGSGTDYSLTISNLEQEDFATYFCQQGNTLPWTFGGGTKLEIK
The molecule B6 gave a Kd in [7] of 0.25 nM. Compared with the last molecule, the Kd is about 8-fold lower.

B7: Hz45G10 anti-ILT3 antibody (antibody, V domains shown)
VH: EVQLVESGGGLVQPGGSLRLSCAASGFTFSDYGMHWVRQAPGKGLEWVAYIFSGSSTIYYADTVKGRFTISRDNAKNSLYLQMNSLRAEDTAVYYCARADGRGAMDYWGQGTLVTVSS
VL: DIQMTQSPSSLSASVGDRVTITCRASQDISKFLNWYQQKPGKAPKLLIYYTSRLHSGVPSRFSGSGSGTDFTFTISSLQPEDIATYFCQQGNTLPWTFGGGTKLEIK
Take B7: in test [8], the “fold higher affinity than the CD3 scFv (for CD3)” value is 38 fold. Besides, binding in [7] was put at a Kd of 0.13 nM.

B8: 48A6 anti-ILT3 antibody (antibody, V domains shown)
VH: EVQLVESGGDLMKPGGSLKLSCAASGFTFSSYGMSWVRQTPDKRLEWVATISSGGTYTFYPDSVKGRFTISRDNAKNTLYLQMSSLKSEDTAMYYCARRGWLLHYYAMDYWGQGTSVTVSS
VL: NIVLTQSPASLAVSLGQRATISCRPSESVDSFGNSFMHWFQQKPGQPPKLLIYLSSKLESGVPARFSGSGSRTDFTLTIDPVEADDAATYYCQQHNEDPFTFGSGTKLEIK
Molecule B8 had a Kd in [7] of 0.08 nM.

B9: anti-CD3 scFv clone (VH as SEQ ID NO: 149, VL as SEQ ID NO: 150) (scFv)
scFv: EVQLLESGGGLVQPGGSLKLSCAASGFTFNTYAMNWVRQAPGKCLEWVARIRSKYNNYATYYADSVKDRFTISRDDSKNTAYLQMNNLKTEDTAVYYCVRHGNFGNSYVSWFAYWGQGTLVTVSSGGGGSGGGGSGGGGSELVVTQEPSLTVSPGGTVTLTCRSSTGAVTTSNYANWVQQKPGQAPRGLIGGTNKRAPGTPARFSGSLLGGKAALTLSGVQPEDEAEYYCALWYSNLWVFGCGTKLTVL
notes: also called the CD3 scFv
In turn, B9 gave a Kd in [9] of 6 nM. This lies in the single-digit nanomolar range.

The values are drawn from US20250206820A1 (NGM BIOPHARMACEUTICALS, published 2025).
